Assay results: US7173007B1, “Therapy for microbial infections” (The Regents of the University of California, priority 2003, dated 2007)

B1: cathelin-like protein: recombinant human cathelin-like domain of hCAP18, residues 31-131 of SEQ ID NO:2, expressed in E. coli, His-tag cleaved by enterokinase (protein, listed as Homo sapiens)
chain: QVLSYKEAVLRAIDGINQRSSDANLYRLLDLDPRPTMDGDPDTPKPVSFTVKETVCPRTTQQSPEDCDFKKDGLVKRCMGTVTLNQARGSFDISCDKDNKR
B2: hCAP18/LL-37: recombinant human full-length cathelicidin, residues 31-170 of SEQ ID NO:2, inactive precursor (protein, listed as Homo sapiens)
chain: QVLSYKEAVLRAIDGINQRSSDANLYRLLDLDPRPTMDGDPDTPKPVSFTVKETVCPRTTQQSPEDCDFKKDGLVKRCMGTVTLNQARGSFDISCDKDNKRFALLGDFFRKSKEKIGKEFKRIVQRIKDFLRNLVPRTES

Assays:
MRSA (ATCC 33591) = test: Radial diffusion (inhibition zone) assay; type: cell-based, Staphylococcus aureus; settings: MRSA
Experimental: (§1) FIGS. 3A–C show Growth inhibition of MRSA, E. coli, and P. aeruginosa by cathelin-like protein. (a) Inhibition zone ssay on tryptone/agarose plates with MRSA. Clear circles show lack of bacterial growth. Lanes 1, 3, 5, bottom row: cathelin-like protein at […], 16 μM, respectively. Lane 2, top row:[…] of His-tagged cathelin-like protein before cleavage. Lane 4, top: enterokinase enzyme alone. All assays were performed in duplicate and repeated three times. (b), (c) CFU assay: growth inhibition of (b) MRSA and (c) E. coli, cultured in 10 mM phosphate and 1% TSB (pH 7.4) and then supplemented with different concentrations of human cathelin-like protein.
Antimicrobial assays. E. coli (ATCC 25922), Pseudomonas aeruginosa (ATCC 8427), Salmonella typhimurium (ATCC 13311), Proteus vulgaris (ATCC 8427), Staphylococcus epidermidis (ATCC 12228), and MRSA (ATCC 33591) isolates were maintained on trypticase soy broth (TSB) agar plates. Individual colonies were selected and cultured overnight in TSB, subcultured once at 1:50 in fresh TSB, and then grown to stationary phase for use in all experiments. The radial diffusion assay was performed in 0.5% agarose and 0.75% tryptone brought to ebullition and cooled to 43° C., and then mixed with […] of bacterial suspension and poured into a 10 cm Petri dish. […]

S. enteritidis = test: Radial diffusion (inhibition zone) assay; type: cell-based
Experimental: (§2) Antimicrobial assays. E. coli (ATCC 25922), Pseudomonas aeruginosa (ATCC 8427), Salmonella typhimurium (ATCC 13311), Proteus vulgaris (ATCC 8427), Staphylococcus epidermidis (ATCC 12228), and MRSA (ATCC 33591) isolates were maintained on trypticase soy broth (TSB) agar plates. Individual colonies were selected and cultured overnight in TSB, subcultured once at 1:50 in fresh TSB, and then grown to stationary phase for use in all experiments. The radial diffusion assay was performed in 0.5% agarose and 0.75% tryptone brought to ebullition and cooled to 43° C., and then mixed with […] of bacterial suspension and poured into a 10 cm Petri dish. A series of small wells (diameter, 3 mm) were punched in the plate after the agarose solidified. Two microliters of test samples were applied in each well. Plates were incubated at 37° C. overnight to allow visible growth of bacteria. Antibacterial activity was indicated by the clear zone (no bacterial growth) around the well.
(§3) Antimicrobial activity of recombinant cathelin-like protein. Recombinant cathelicidins were tested for antimicrobial activity using a standard radial diffusion assay. Different concentrations of the cathelin-like protein were loaded into wells on assay plates containing Gram-positive MRSA, S. epidermidis, and strains of the Gram-negative bacterial species E. coli, S. enteritidis, P. vulgaris, and P. aeruginosa. […] Similarly, cathelin-like protein inhibited growth of S. epidermidis ([…]) but not S. enteritidis or P. vulgaris.

E. coli (ATCC 25922) = test: Radial diffusion (inhibition zone) assay; type: cell-based
Experimental: as §2, §3

[1] = tested on: Proteus vulgaris (ATCC 8427); test: Radial diffusion (inhibition zone) assay; type: cell-based; settings: P. vulgaris
Experimental: as §2, §3

[2] = tested on: Staphylococcus epidermidis (ATCC 12228); test: Radial diffusion (inhibition zone) assay; type: cell-based; settings: S. epidermidis
Experimental: as §2, §3

[3] = tested on: Pseudomonas aeruginosa (ATCC 8427); test: Radial diffusion (inhibition zone) assay; type: cell-based; settings: P. aeruginosa
Experimental: as §2, §3

human liver cathepsin L = target: T1, human liver cathepsin L (Homo sapiens, UniProt P07711); test: Proteinase activity inhibition assay (hydrolysis of Z-Phe-Arg-AMC); type: biochemical
T1 construct: human liver cathepsin L (Calbiochem, Calif.); purchased Calbiochem; host or cells: human liver
Experimental: FIG. 2 show the proteinase inhibitory activity of recombinant cathelin-like protein. Hydrolysis of the fluorogenic substrate Z-Phe-Arg-AMC by cathepsin L (protease alone), and in the presence of cathelin-like protein (protease+cathelin). […] Slopes, intercepts, and correlation coefficients were calculated by linear regression. Data were recorded 10 times over 30 min and are representative of two experiments.
Proteinase activity inhibition assay. Proteinase inhibitory activity of recombinant cathelin-like protein was assayed spectrofluorometrically by measuring its inhibitory action against human liver cathepsin L (Calbiochem, Calif.). For the reaction assay, cathepsin L (0.1 mU) in the assay buffer ([…] sodium acetate, 60 mM acetic acid, 8 mM dithiothreitol, and 4 mM EDTA, pH 5.5, supplemented with 0.1% BRIJ 35) was preincubated for 2 min at 30° C. with 10^−6 M cathelin-like protein before adding […] of substrate Z-Phe-Arg-7-amido-4-methylcoumarin (Calbiochem). When hydrolyzed by cathepsin L, this substrate releases highly fluorescent 7-amido-4-methylcoumarin (AMC). AMC intensity was determined using spectrophotometer at 370 nm excitation and an emission wavelength of 460 nm. One unit was defined as the amount of enzyme that will hydrolyze 1.0 mmol of Z-Phe-Arg-AMC per min at 25° C., pH 5.5.
Proteinase inhibitory activity. To evaluate the possible protease inhibitory activity action of cathelin-like protein, the activity of human cathepsin L was measured in the presence or absence of recombinant cathelin-like protein using the fluorescent substrate Z-Phe-Arg-AMC.

MRSA = test: Colony-forming assay (CFU), liquid phase; type: cell-based, Staphylococcus aureus; settings: 10 mM phosphate, 1% TSB, pH 7.4
Experimental: as §1
(§4) The colony-forming assay (CFU) was performed. Bacterial cultures (E. coli or MRSA) were collected at the logarithmic phase of growth in TSB, washed twice with phosphate-buffered saline, pH 7.4, and diluted to 104 CFU per ml in 10 mM phosphate buffer, pH 7.4, Na2HPO4/NaH2PO4-1% TSB (g per 1). Forty-five microliters of bacterial suspension were mixed with […] of H2O (control) or with […] of different concentrations of cathelin-like proteins, and the mixture was incubated at 37° C. Every 30 min, a […] aliquot of the reaction mixture was plated directly onto a TSB agar plate and then incubated at 37° C. overnight for enumeration of CFU. Data are reported as growth index=final CFU/CFU in initial inoculum. […]

E. coli = test: Colony-forming assay (CFU), liquid phase; type: cell-based; design: unit of the concentration uncertain; settings: 10 mM phosphate, 1% TSB
Experimental: as §1, §4

T1 sequence (P07711 114-288 limits assumed): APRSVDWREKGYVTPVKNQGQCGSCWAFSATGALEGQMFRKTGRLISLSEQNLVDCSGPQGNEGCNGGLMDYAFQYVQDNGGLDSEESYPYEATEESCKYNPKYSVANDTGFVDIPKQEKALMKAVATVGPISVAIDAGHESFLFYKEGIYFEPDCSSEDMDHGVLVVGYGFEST
T1 sequence (P07711 292-333 limits assumed): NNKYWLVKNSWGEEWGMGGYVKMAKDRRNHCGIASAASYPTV

| Molecule | minimal inhibitory activity against growth, concentration (MRSA (ATCC 33591)) | growth inhibition (S. enteritidis) | minimal inhibitory activity against growth, concentration (E. coli (ATCC 25922)) | growth inhibition [1] | minimal inhibitory activity against growth, concentration [2] | growth inhibition [3] | slope of fluorescence generation (linear regression) (human liver cathepsin L; cathepsin L + cathelin-like protein, cathepsin L alone slope 1.31) | hydrolytic activity of cathepsin L inhibited by (human liver cathepsin L; protein added at final concentration of 10^-6 M, substrate Z-Phe-Arg-AMC) [%] | effect on growth (CFU) (MRSA; concentration not given) | effect on growth (CFU) (E. coli; 16 (unit uncertain), pH 7.4, compared to untreated controls) | minimal inhibitory activity against growth, concentration (S. enteritidis) | minimal inhibitory activity against growth, concentration [1] | minimal inhibitory activity against growth, concentration [3] | cathepsin L inhibitory activity (human liver cathepsin L; parallel experiments) | effect on growth (CFU) (MRSA) | effect on growth (CFU) (E. coli; 32 (unit uncertain), pH 7.4) |
| --- | --- | --- | --- | --- | --- | --- | --- | --- | --- | --- | --- | --- | --- | --- | --- | --- |
| B1 | 32 mM | not | 16 mM | not | 32 mM | did not inhibit growth | 0.71 | 46 | decreased MRSA CFU for the first 15 min and then was bacteriostatic | marked growth inhibition | – | – | – | – | – | – |
| B2 | greater than 64 mM | – | greater than 64 mM | – | greater than 64 mM | – | – | – | – | – | greater than 64 mM | greater than 64 mM | greater than 64 mM | did not demonstrate inhibitory activity | did not show any activity | did not show any activity |
